The text below walks through data of a protein production outcome set (Wang et al. 2014).

The nature of the series: label from the status in PepcDB records.

Turning to “MKLHLTNLYGMAGDSTVILAQNAVQKIASQLGFREVGIYFYNIASDSPSEMNKRLDGIMASISIGDILVFQSPTWNGFEFDRLLFDKLKDMQVKIICFIHDVVPLMFDSNYYLMKDYLYMYNLSDVLIVPSERMKTRLMEEGLTTKKILVQGMWDHPHDLSLYTPAFKKELFFAGSLERFPDLQNWSQDTPLRVFSNKGEASSSARSLSIEGWKKDEELLLELSKGGFGLVWGTHQNEGESNQYYTLNISHKVSTYLTAGIPVIVPSSLSTAKFIVDQGLGFMADSLEEVHEIVDKMNLQEYQEMTNRIKTFSYLLKEGYFTKKLLVDAIYHLGID”, the protein production entry is given as “failed”. As to “MKLIKFVRNVVLFILTAIFLAFMLLVSYCMPHYSAAVISGVEVKRMNENENTPNNKEVKTLARDVYFVQTYDPKDQKSVTVYRNEDTRFSFPFYFKFNSADISALAQSLINQQVEVKYYGWRINLFNMFPNVIFLKPLKESTDISKPIFSWILYALLLMGFFISARSVCTLFKSKAH”, the protein production result was “failed”. Consider “MKLIKTIDAVGQVLCHDITQIIPGEFKGRKFKKGHIVKEEDIPVLLSLGKDNLYVWEKSEGMVHENEGALFLKELTAGENLDFSEIKEGKIDFIAACDGLLKIDVDALFDLNCVGEIMMATLHNNFIVNKGLKVAGTRVIPLVIDEKKLEDAKKVVGNRKIVNVVPFKPKKVGIVTTGNEVFYSRIVDKFGPVIEEKVKGFGCEVIGQTICPDDKEIIKSAIKEFISQGAELICCTGGMSVDPDDVTPTAIKETGADLVTYGSPILPGAMFLLAYYGEVPIMGIPGCAMYHKTTVFDIVLSRVLIDEKLDKYDIARYGHGGLCMNCDVCTYPACNFAKILEHHHHHH”, for which the protein production entry was “failed”. “MKLIQMSDHIYKLNIQTTVGIPIQINTWFIVNDNDVYIIDTGMDDYAELQITIAKSLGNPKGIFLTHGHLDHINGAKRISEALKIPIFTYKNELPYINGELPYPNKTHTENTGVQYIVKPLETNTNLPFNYYLTPGHAPGHVIYFHNQDKILICGDLFISDAQHLHIPIKKFTYNMTENIKSGQIIDNLCPKLITTSHGDDLYYSDDIYSIYKFKYEELEHHHHHH”: the protein production entry is listed as “failed”. For “MKLIRLIASPILMYVLAGVYALVLAIATFVENSSGPAVAREYFYYAPWFILLQLLQAVNLLAMFLQGGYFKRISKGSLIFHGALVFIWLGAAVTHYAGVTGIMHIREGETVDRMMRDEGAGMGNASLPFSVTLDDFRLKRYPGSHSPMSYESDLVIKKENEAPLQATVRMNKVIEVDGYRLFQSSFDPDEQGTVLSVSYDRPGMQITYIGYFLLFAGFVLTLFSKKSRFGRLRRELGEMKKNAPFCLLLFLGLSGALGTQASYAQETLSSSQLPCIPAPHARKFGSLVLLNPNGRLEPVNSYTSAILRKLYGADKLNSINSDQFFLNLLAFPDEWGGYPFIKVDNKDILQRFGRDGKYIAWQDVFDADGNYVLTDEVNAIYAKSASERKRMDSDLLKLDESVNIVYRIMQHQLLPLFPDENDVQGKWYSAGDEQTVFHDKDSLFVSKIMDWYIYELGNGVRTNNWKEADKIVDMMHIFQQAKSKTPAIDNQRVKAELLYNQLNLFFWCRLAYLILGGILLFIACGEIIADFKWGSRLSSILIVLLIAAFLAHTTGVLLRWYISERAPWANAYESMICTSWLLVGGGLLFARRFRILPALAGLLGGIMLFVAGLNHLNPEITPLVPVLQSYWLMSHVAIIMIGYVFFALCALTGLFNLILMNLLSATNRVKLLFRIREFTLLNEMAMILGLFFMTAGTFLGAIWANVSWGRYWGWDPKETWALISIVVYALVLHIRFIPLLKGKTTWCYNLLSVVSILSIIMTWFGVNYYLSGLHSYGKTEGGDLLLWIWGAGLCVVLALALFARRRLKKYS” the value was “failed”; for “MKLISQAVKNYLPELSLRQKQTNNIIFITFWSQFSVYALNTVLVLFLTRPLIAQGLGYSQAKAYAFIGVTQATGYLMPILGGYMADNIVGVRRSILLGSIMLACAYLLVMLSGYTISSLGDQLFIIAFAFIPATNSLLMGTASSMVSHIYSDDAIKAKSAMTYYYMAINVGALLATMIAPVLLESRYGPLSVLTLTFIGKSIAALNFAKRYSIYDSVIWGMDKSKFSNQGLLRLVAYIAAIYSLTLYAYTHVYIASTLIGAGCAIGILWFLIKTIMLKGETRSKQMIAVLLIIEAIVFFIIYNQMNSTLVLFAENNSDLSFLWFKISPAQYQMLNPLLILLIGSQLPRFYRFFSRFTIPYQFAAGTILSGIALLVMAFAAQNAINGLVNGNYIALTYILISIAELWVSAIGLSMIGLYCDARAIAFAMGVWYLASSMSNAISGRIAGWVAIPENINSALESLPYYKNYYLIMGISALGLGILMYFVAYYLHKIMKRRGIELA”, “failed”.

As for “MKLKKEKKMAEFTFEIEEHLLTLSENEKGWTKEINRVSFNGAPAKFDIRAWSPDHTKMGKGITLSNEEFQTMVDAFKGNLEHHHHHH”, the protein production result is listed as “not failed”. As for “MKLLENSRFEALSSQLCVETGDAQIIGRIESYSCKMAGDDKHMFKQFCQEGEPHVLEALSPPQSSSAPSPNLLGKSGEDAENPLSDKCCRKTLFYLITTLNESFRPDYDFSAARAHEFSREPSANWVANSVNSSLYSAVGEQFNTLGPELWTAIDQEINLQGCDIYSYNPDLDSDPFGEEGSLWSFNYFFYNKKLKRILFFTCRSVSVLSSYGRSGLDNELDMELDDEEELDGFMEDRIPRALCV”, the protein production result is given as “failed”.

On to “MKLLFVSPGWPRGRLWGELGFKFPSLSLAALAAVTPESWDVALCDENIEPLDLNSDADLVAITAMTPQAPQAYRIAAAFRARGKRVVMGGFHASNLPEEALQHVDAVVVGEGEVVWPQLLADLERGELQRIYRAATALAMEAIPVARRELFQGKRYLFTNTLQTTRGCPFDCEFCSVTAFYGRRYRKRPVDNVLAELELLRRRNSFAFFVDDNLVADRTYALSLFAGMKGMGFKWLSHAPIDFAHDREFLRAAGEAGCVGMFVGFESLNQDALAAMGKVTNTARSYLEDAQAFRDNGIGILGSFVLGCDNDTPAVFEGLLRFCEEARLEAAIFPILTPYPGTEVRRRLEAEGRIISSDWQDYDMEHVTFLPRGMSVDELQQGYDWLNRSFYSLPSMYRRIFKAHRSVQVFAPMNFGFRSAIRRKGRVA”, for which the protein production entry is “failed”. In the case of “MKLMVNHQTHYHYSEVARNSIQYIKMIPQSSPHQLVHYWDISVPGERIMKRDAFDNLWITSSQRFDYQNLTIMAQGIVELNLQNSGCHDSVVLPHVFLQPTPATLCDAEMLNFALEIVKTKDVSSLINLSQKILERITYSPYSTNVQTTAIDAFYAAQGVCQDHAHVMIAMCRALNLPARYVSGYLYDYNSPHLASHAWAEVYVDHEWHCFDVSNQIFVPKTHIYVAIGRDYFDVAPIRGIRENGGIEEMISTVQVLAC”, the protein production result is recorded as “failed”.

With “MKLNIKDVVLNYNIIGEGEPIIILHGYSVDHTIMFGCMENLFSDESRYKRIYVDLPGMGKSTSSDSIKTSDNMLDIILEFIMKVTKGENFLLVGESYGGYLSRGVVYKIREKVNGLFLICPAIIPDFNKRTVPEHVILAYDEKLMSKLNKEEAEEFSSMSVVQNEKIYLRFKEEVMSGIKLGNQDFLERLQREGYGFSFDVDKLPQKFDKPTLMLLGKQDASVGYKDAWNILDNYPRATFAVLDMAGHNLQIEQEDIFNLLGKEWISRTYREKDY”, the protein production entry is recorded as “failed”. For “MKLSAAGVEKIKPTDKRQEIPDSLCVGLYLIVQPTGKKGWQVRYRHGGVHRRMSLGAFPVLSLAGARERARQTLAAASAGTDPAAEVKAAKAPKLDGDRDKIKTLIGQFDKRHLSKLKSGAVVRRELERHVVSAWGERDVHQIGKRDVIDLLDGIADSGRVVTANRVRAYLAKFFGWCVERDILATSPAAGVKPAGKETSRARVLTDDEIRWFWTACEAEGFPWGPFGKVLLLTGQRLNEVAQMTDSEIRGDLWHLTADRTKNGRAHDVPLTGAVRAALDEVERVTDEEGRVRFIFTTTGRTPVSGFFKARAVLAEAMVGIAQKERGEPVEIPRWTFHDLRRTAATGMARLGIPVRVTEAVLNHVSGTGGGIVAVYQRHDYADEKRQALEAWARFVLSLVEGEADNVVRLQHG”, the protein production result was “failed”.

As to “MKLSILKNSMNSGKAVLFIVTGIIGLLIAIGTMLLFSFYPTEQNVSQSILYITFALWTVGWVLGPIIAGGDGILRSEYFVLLPFTSYKLARALLVVAFIGLGPIVSLIAFIGLFIYAARVSLSATIVAIPAIILQLIFVVLLSKVVVSIIGETLKSRIGMEVGAMLFGFIIAFLNVGWYVLPTINKMTLSDSTLLYMFPSSWAILAVEYAIQSNWLLVLVFLIVLTILCGLLFFIWATLLMKSTETKKIEGRITTNKHRKALRFFSETKIGATITKELKSWRRDPQRGRFLRMGIWIGVFYGILVTSANISYLMPWAGIIMIVFTSMFSCNIYGFDGSALWLTLTTPDAERIDVRGRQFAWLIAVGPIAILATIIFTISSGLTFIYPWVFTVIPALLGGAAGLIMLFSVFNVVPITDPHRRGRGSVISGDDMNASKMFITTWLMMVMVMATTIPALLVVWLGTLLHVQFLQWLGVLTGICTGMFFAWWFGRIAYLKIEKSGSELLFEMKNGMKTLRDDNKKKGNRKAVELPKKKLAIVVLLVFMGIFFLIHQSVVPLIFEIFSIDDKVRLFFLPRYVPHIVRIPIIILFAILGIASLYKAILIKKKHGKEHRFIKDEM”, the protein production result is given as “failed”.

In the case of “MKLSSLLNSENSEKNHLQIQQSGQRRIDRMAQSGVGKSSLWSLAEVGWTAGPVTFLAAQGGYYLGFGTWLPNENLIFFVGYTVLMGLIAVLVKFIYKATKGQELDDAKEQLLLVIGSLPDFILSVRDLTLSRMEPESRRYESARILLQKSDLGPQWLTLAVNSIIDSPVIAQAVANIEIYWRAGMYSRIHDINQELSTEISAALASLEPDRPRLARLLEQRLQGKKNTLRSGVEREPFFIERIFSAIEEDNEDIMGLSDVEEVLTLAFELLSGRRIPMLVVNCVGSSQLTIATKKLEKERSKYRIARARGYSQLLALANFLSDSNLLDYSTVAERLPSSDLLQICLETIDRLCQNICDDIGCVQKRENVDMRALKLNHSVLIKALELYQQAYRSSAMVLNEHADFLKDINSWQRINLKYADANTKVSVTGKQGLHIIERQIQLTDADKITVVKKIAHHFDSQSILSKGLRNRTQQSNWQVSNQHVRAAKQLAIDLALALNPCVFISLPEVQGAIYSSNAVDLGSFEPGLSTTTKVGWGESVAKEVKKDMVKASEQIAQAIHRYYGICLGDKELDFMHQTYGMNKEHVIDYYLENEQGEQSSNVFEPRSPLMIPEVKFAWRKTLTLYRQHI”, the protein production entry was “failed”. In the case of “MKLSVCTITFRHHLLCFSEIVEWTQRNGFDGVELWGAHARGLMRTHPEYDADWLRSYGLSVPMLSDYLPTDGDITDTRHRAIELCRIAQHWSARKIRTFAGNRPSAQLSREQRRALAGRIGEIAGIVHDHGIRLLVETHPNTLADNVDSTLGLLADANHPGLGINFDALHVWEGGDDPVLARRTLADFIGHYHLKNVRSRDELGVFAPENVYSAAGSRDGMVPLFDGAMDYEGFLASLADETDAEASLEWFGHDCFETLARDRLAIFARSISTRGRRGSAGTQQARLAESRAAGRAASSKGPSCI”, the protein production result is listed as “failed”. As to “MKLTIIRLQHFSDQDRIDLGKIWPSQDLSTLTLDENHRLYAAHFNERLLGAVRVTLRGVEGELSDLCVREVTRRRGVGQYLVEETLRDNPAINSWRVADHGVEDRGVMAAFMQALGFSAQQNGWEKH”, the protein production entry is recorded as “failed”. Regarding “MKLVICAGPATTGKTAVLRHAIGKLIGRGFKPAFLKIDVQYAEEDEQFAREFAIPTRKTYSGDLCPDHCTVMVLGEALEWAGRQGADVLLVETAGLCLRCSPYVDGGLGVIVLEATSGMNLPLKVGPMLSLADVAVVTKIDRISQAEREVFRARIQDVAPGVRIREANALHGIGIDPLVDQIQATPDVDATLSLRGNPPVGTCTICVGKKEIGWKAHFGVVRSLENQTFYRGELEHHHHHH”, the protein production entry is reported as “failed”. With “MKLYQHIETLWDYMQLKQDLKPADCLFVMCSNDVRVAEHAAALYHQKLAPLIVFSGGEGRFTDGLFEKSEAETFADIARLAGVPSDAILVETRSTNSGENVRFTEQLLKEKGIQCESIILVQKPFMERRAIATFEKQWQSPYSQVQVSSTAHPFFEYINEDMPLMMVLEALMEDFSRVKSYPEKGFQTKQDIPNQVDSSYQVLLERFGFDLVLEHHHHHH”, the protein production entry is given as “failed”.
